One series deals with erythropoiesis. Put plainly: Erythropoiesis in normal mice, hemoglobin (Hb) content. The class given is in vivo, BALB/c mice. The conditions noted are these: weekly subcutaneous administration. On the procedure: rEPO/GLK1074 fusion protein was compared with standard rEPO (EPOGEN®, AMGEN Inc.) in erythropoiesis activity in mice. BALB/c mice (male, 6-8 weeks old, 18˜20 g/only) from the Shanghai Institute of animal testing center were used in the experiments. Grouping, injection, and tail vein blood samples collecting were performed according to the following table. Hemoglobin (Hb) content was determined by colorimetric.

The next series has as its system 2′,5′-OAS. Kind of series: Serum 2′,5′-OAS activity in rhesus monkeys after subcutaneous administration. Type of series: in vivo. On the procedure:
Rhesus monkeys.(n=15; including female and male; age range: 3-4; weight range: 4.2-4.8 kg), were purchased from Animal Center of Chinese Academy of Military Medicine and divided into five groups (3 in each group). Samples were diluted with PBS, wherein rGLK1164/IFNα was diluted respectively to 0.36, 1.0 and 3.6 pmol/kg, IFNα (positive control) was diluted to 0.36 pmol/kg, and rGLK1164 (blank control) was diluted to 0.36 pmol/kg. The diluted samples were administered to rhesus monkeys subcutaneously and the serum samples were collected at 0, 1, 2, 4, 8, 10, 14 […] after injection respectively. The activity of 2′, 5′-OAS in serum was measured with 2′,5′-OAS radioimmunoassay kit (Eiken Chemical Co., Tokyo, Japan).

Series [1] is described as follows: Half-life of GLK/IFNα fusion proteins in SD rats. Type of series: in vivo. The text has this: The structure characteristics and half-life in SD rats of the different GLK/IFNαs, which was constructed by fusion to different GLK, was compared in Table 5.

On to “rEPO: standard rEPO (EPOGEN®, AMGEN Inc.) [reference compound]”, for which the “erythropoiesis activity, Hb levels” value in the series with erythropoiesis is “significantly lower than rEPO/GLK1074”.

With IFNα [reference compound], the detectability in vivo entry with 2′,5′-OAS is “could hardly be detected 6 days later”.

Consider “GLK302/IFNα: IFNα fused with GLK302, a repeated sequence of GGSGGS (SEQ ID NO: 16)”, for which the “Half-life” value in series [1] is 14.4 h.

Source of the values: US9051358B2, “Nonnatural collagen-like protein and use thereof” (ZHEJIANG UNIVERSITY, priority 2009, dated 2015).
